B1: library; numbered along this chain (parent)
chain: MAAAGGARLLRAASAVLGGPAGRWLHHAGSRAGSSGLLRNRGPGGSAEASRSLSVSARARSSSEDKITVHFINRDGETLTTKGKVGDSLLDVVVENNLDIDGFGACEGTLACSTCHLIFEDHIYEKLDAITDEENDMLDLAYGLTDRSRLGCQICLTKSMDNMTVRVPETVADARQSIDVGKTS

Variants of: B1
Test: scaled log2 fold change in cell abundance, elesclomol vs control (0 = silent mean, 1 = nonsense mean) (scaled log2 ratio); higher = higher viability under elesclomol (loss of FDX1 cuproptosis function)
Settings: glucose 10 mM
Description: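 Deep mutational scan of full-length human FDX1: a pooled saturation-mutagenesis ORF library (every residue 2-184 mutated to all 19 amino acids plus stop, and silent codons where available) was expressed by lentivirus in FDX1-knockout ABC1 (14 days) or HEK293T (11 days) cells grown with elesclomol (ES) or DMSO control. Variant abundance came from ORF sequencing. The log2 fold change (ES vs control, mean of duplicates) was centred on the silent-variant mean (0) and scaled to the nonsense-variant mean (1). Higher values mean greater viability under ES, i.e. loss of FDX1 function in cuproptosis.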

[1] = with ABC1 FDX1 KO, elesclomol 5 nM, 14 days
[2] = with HEK293T FDX1 KO, elesclomol 40 nM, 11 days
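Note: variant abundance is its share of total variant reads in each endpoint sample, from next-generation sequencing of the integrated ORF PCR-amplified out of genomic DNA.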

Variant | scaled log2 fold change [1] | scaled log2 fold change [2]
E64Y | 0.374 | -0.0105
E64I | 0.394 | 0.168
E64G | -0.323 | 0.0488
E64H | -0.531 | -0.334
E64D | 0.0681 | -0.0197
E64S | -0.691 | -0.469
E64Q | -0.0857 | -0.107
E64F | 0.0956 | 
E64L | -0.17 | -0.952
E64P | 0.158 | 0.0559
E64W | -0.394 | 
E64V | -0.321 | -0.136
E64A | -0.335 | 1.19
E64C | -0.0781 | 0.793
E64K | 0.278 | -0.162
S61Y | 0.603 | 1.51
S61R | -0.524 | 
S61I | -0.527 | 
S61Q | 0.577 | 
S61G | -0.405 | 
S61D | 1.01 | 1.93
S61W | -0.113 | 0.846
S61F | -0.102 | 
S61M | 0.184 | 
S61E | 0.468 | 

Variant | scaled log2 fold change [1] | scaled log2 fold change [2]
S61N | -0.737 | -0.556
S61V | 0.78 | 
S61K | -0.0816 | 
S62F | 0.075 | 0.425
S62D | 0.269 | 1.05
S62M | 0.0792 | 
S62K | 0.104 | 1.13
S62R | -0.893 | 0.128
S62L | 0.0177 | 0.0918
S62I | 0.0619 | -0.0402
S62E | 0.0386 | 
S62N | 0.0847 | -0.479
S62C | -0.366 | -0.138
S62Y | -0.427 | 
S62W | -0.132 | 
S62H | -0.223 | 0.729
S62T | -0.0712 | -0.205
S62A | -0.86 | -0.876
S62Q | 0.0996 | 0.145
S62G | -0.00606 | 0.141
S54E | -0.297 | 0.751
S54P | 0.151 | -0.0299
S54Q | 0.175 | 1.12
S54L | -0.261 | -0.248
S54N | -0.135 | -0.939

Variant | scaled log2 fold change [1] | scaled log2 fold change [2]
S54A | 0.19 | -0.116
S54V | -0.108 | -1.29
S54D | -0.0274 | -0.0231
S54F | 0.138 | 0.0641
S54H | -0.807 | 
S54W | 0.208 | -0.341
S54G | -0.1 | -0.00382
S54R | 0.322 | -0.406
S54C | -0.019 | -0.176
S54M | -0.399 | 0.147
S54K | -0.175 | -1
S54Y | -0.0125 | -0.0955
S54I | 0.459 | 
S54T | 0.484 | -0.46
K66E | -0.297 | -0.118
K66D | -0.097 | 
K66A | -0.0856 | 0.00324
K66C | -0.0989 | -0.0245
R60P | -0.332 | 0.626
R60G | -0.278 | -0.224
R60W | -0.217 | 0.972
R60E | -0.329 | 0.272
R60Y | 0.215 | 0.0482
R60I | 0.0411 | 
R60A | 0.137 | 

Variant | scaled log2 fold change [1] | scaled log2 fold change [2]
R60K | -0.27 | 
R60M | -0.213 | 0.72
R60H | -0.288 | -0.116
R60T | -0.956 | -0.542
R60L | 0.042 | -0.384
R60S | 0.275 | 0.216
R60C | 0.327 | -0.517
R60Q | -0.0931 | -0.217
R60F | 0.0888 | -0.201
R60V | 0.116 | 
R60N | -0.096 | 0.128
S63E | 0.199 | -0.451
S63D | -0.272 | -0.143
S63M | 0.124 | -0.609
S63C | 0.302 | -0.446
S63Q | -0.105 | 0.797
S63R | 0.598 | -0.598
S63P | 0.175 | 0.000753
S63L | 0.0558 | -0.251
S63K | 0.173 | -0.352
S63N | -0.0613 | -0.00891
S63F | 0.0355 | -0.0458
S63H | 0.197 | 0.218
S63Y | 0.0691 | 0.7
S63V | 0.189 | 0.0727

Variant | scaled log2 fold change [1] | scaled log2 fold change [2]
S63T | 0.0678 | -0.0954
S63W | 0.527 | 0.0977
S63I | -1.11 | 0.315
S63G | 0.283 | 0.000639
S63A | 0.227 | 0.763
A59F | 0.319 | -0.721
A59N | -0.132 | 0.117
A59E | -0.245 | 0.171
A59L | -0.434 | 0.562
A59V | -0.507 | 0.0474
A59R | -0.761 | -0.456
A59Q | 0.564 | -0.702
A59H | -0.614 | 
A59W | 0.216 | 0.283
A59G | -0.424 | -0.916
A59M | -0.0959 | -0.108
A59Y | 0.0878 | -0.306
A59C | -0.665 | 0.732
A59I | 0.202 | 0.473
A59D | -0.0282 | 0.274
A59T | 0.332 | -0.0311
A59K | -0.0687 | -0.733
A59P | -0.0792 | 
A59S | 0.217 | 0.732

Reference: the supplement of paper PMC12855868
